Measurements published in patent US6953661 (WESTMEAD HOSPITAL, dated 2005).

Biological target: T1, His-KHCstalk (human uKHC amino acid residues 555-772, tagged at the N-terminus with an oligohistidine … (human, UniProt P33176 555-772))
T1 construct: range 555-772; also the antigen used to raise the chicken anti-uKHC; also called HisKHC555-772; His-KHC fragment; not shown: N-terminal oligohistidine (His) tag
T1 sequence (looked up): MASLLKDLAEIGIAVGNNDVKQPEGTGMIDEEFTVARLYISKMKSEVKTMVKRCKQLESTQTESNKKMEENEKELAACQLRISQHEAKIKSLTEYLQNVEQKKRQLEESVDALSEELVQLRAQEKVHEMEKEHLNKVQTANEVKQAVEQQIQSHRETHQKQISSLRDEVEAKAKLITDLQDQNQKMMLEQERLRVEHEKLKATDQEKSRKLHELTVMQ
Assay: pull-down on nickel-activated beads, immunoblot

B1: untagged US11 (recombinant HSV1 US11 with five additional amino acids MGRLE at the N-terminus, expressed in Escherichia coli) (other)
chain: MGRLEMSQTQPPAPVGPGDPDVYLKGVPSAGMHPRGVHAPRGHPRMISGPPQRGDNDQAAGQCGDSGLLRVGADTTISKPSEAVRPPTIPRTPRVPREPRVPRPPREPREPRVPRAPRDPRVPRDPRDPRQPRSPREPRSPREPRSPREPRTPRTPREPRTARGSV
notes: also called untagged US11 construct
binding result: no binding
